Data as given in US20250197519A1 (Xencor, published 2025).

B1: bivalent IgG1 mAb having humanized/affinity-optimized [CD20]_H1_L1 Fv (antibody, V domains shown)
VH: QVQLVQSGAEVKKPGASVKVSCKASGYTFTSYNMHWVRQAPGQRLEWMGAIYPGNGATSYSQKFQGRVTITADTSASTAYMELSSLRSEDTAVYYCARSYYMGGDWYFDVWGAGTLVTVSS
VL: QIVLTQSPSSLSASVGDRVTITCRASWSVSYIHWFQQKPGKSPKPLIYATSNLASGVPVRFSGSGSGTDYTLTISSLQPEDFATYYCQQWTHNPPTFGGGTKVEIK
notes: also called improved CD20 mAb

What was measured:
[1] = biological target: CD20 on CD20+ Ramos B cells (human) (UniProt P11836); assay: flow cytometry on Ramos B cells, PE-conjugated goat anti-human IgG Fc secondary
[2] = biological target: T1, CD20 on CD20+ Ramos B cells (human, UniProt P11836 1-297); assay: as above
T1 construct: whole, on cells; also called human CD20
T1 sequence (looked up): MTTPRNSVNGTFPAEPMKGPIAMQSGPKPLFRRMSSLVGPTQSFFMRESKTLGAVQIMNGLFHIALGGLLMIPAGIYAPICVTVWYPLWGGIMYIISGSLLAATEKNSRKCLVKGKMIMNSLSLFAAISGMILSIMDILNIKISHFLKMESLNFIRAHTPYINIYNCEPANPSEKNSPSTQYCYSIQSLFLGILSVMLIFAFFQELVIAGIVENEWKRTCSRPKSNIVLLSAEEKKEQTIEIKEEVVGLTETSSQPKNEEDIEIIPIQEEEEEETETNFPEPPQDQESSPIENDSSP
Description: Next, binding of the improved CD20 mAb to CD20+ Ramos B cells was investigated. 1.5×10⁵ Ramos B cells were incubated with indicated concentrations of bivalent IgG1 mAb having either [CD20]H0L0 or optimized [CD20]_H1_L1 on ice for 1 hour. PE-conjugated goat anti-human IgG Fc was used as a secondary antibody to detect binding of the CD20 mAbs to the target cells.

EC50 [1] | EC50 [2] | Molecule
0.264 µg/mL |  | bivalent IgG1 mAb having the rituximab Fv [CD20]_H0L0 (antibody)
 | 0.175 µg/mL | B1
